Experimental data: US20250163182A1 (Janssen / Centocor, published 2025)

Assays:
[1] = molecular target: T1, human ENPP3 on cells (human, UniProt O14638 1-875); test: cell-based or functional assay
T1 sequence (looked up): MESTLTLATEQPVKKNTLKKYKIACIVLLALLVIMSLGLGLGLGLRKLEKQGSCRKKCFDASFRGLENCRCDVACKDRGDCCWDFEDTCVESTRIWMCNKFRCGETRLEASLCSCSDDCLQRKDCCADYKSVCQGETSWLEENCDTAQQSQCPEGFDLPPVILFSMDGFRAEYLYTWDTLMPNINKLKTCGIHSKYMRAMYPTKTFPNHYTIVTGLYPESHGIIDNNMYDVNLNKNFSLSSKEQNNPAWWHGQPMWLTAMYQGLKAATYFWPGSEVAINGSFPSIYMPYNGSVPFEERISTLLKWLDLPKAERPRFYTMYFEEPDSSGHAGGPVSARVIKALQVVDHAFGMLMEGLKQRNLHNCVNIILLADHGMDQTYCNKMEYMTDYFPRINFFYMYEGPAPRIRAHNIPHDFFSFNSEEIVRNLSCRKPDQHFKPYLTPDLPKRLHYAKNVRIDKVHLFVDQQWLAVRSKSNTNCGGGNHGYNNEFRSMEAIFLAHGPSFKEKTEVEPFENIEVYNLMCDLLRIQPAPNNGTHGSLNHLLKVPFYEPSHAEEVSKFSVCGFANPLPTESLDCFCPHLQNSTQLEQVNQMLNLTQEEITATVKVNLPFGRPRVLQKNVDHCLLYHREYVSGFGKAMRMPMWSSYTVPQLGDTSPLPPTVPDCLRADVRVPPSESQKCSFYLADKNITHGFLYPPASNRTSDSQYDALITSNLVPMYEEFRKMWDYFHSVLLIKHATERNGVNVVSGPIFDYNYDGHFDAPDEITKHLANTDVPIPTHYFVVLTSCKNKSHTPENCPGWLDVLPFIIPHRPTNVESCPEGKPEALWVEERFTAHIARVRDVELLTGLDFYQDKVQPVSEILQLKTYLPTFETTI

[2] = molecular target: T1, human ENPP3 on cells; test: cell-based or functional assay; remark: listed apart in the source
[3] = molecular target: T2, cynomolgus monkey ENPP3 on HepG2-KO cyENPP3 OE cells (cynomolgus monkey, UniProt A0A2K5TKP4 1-874); test: cell-based or functional assay
T2 sequence: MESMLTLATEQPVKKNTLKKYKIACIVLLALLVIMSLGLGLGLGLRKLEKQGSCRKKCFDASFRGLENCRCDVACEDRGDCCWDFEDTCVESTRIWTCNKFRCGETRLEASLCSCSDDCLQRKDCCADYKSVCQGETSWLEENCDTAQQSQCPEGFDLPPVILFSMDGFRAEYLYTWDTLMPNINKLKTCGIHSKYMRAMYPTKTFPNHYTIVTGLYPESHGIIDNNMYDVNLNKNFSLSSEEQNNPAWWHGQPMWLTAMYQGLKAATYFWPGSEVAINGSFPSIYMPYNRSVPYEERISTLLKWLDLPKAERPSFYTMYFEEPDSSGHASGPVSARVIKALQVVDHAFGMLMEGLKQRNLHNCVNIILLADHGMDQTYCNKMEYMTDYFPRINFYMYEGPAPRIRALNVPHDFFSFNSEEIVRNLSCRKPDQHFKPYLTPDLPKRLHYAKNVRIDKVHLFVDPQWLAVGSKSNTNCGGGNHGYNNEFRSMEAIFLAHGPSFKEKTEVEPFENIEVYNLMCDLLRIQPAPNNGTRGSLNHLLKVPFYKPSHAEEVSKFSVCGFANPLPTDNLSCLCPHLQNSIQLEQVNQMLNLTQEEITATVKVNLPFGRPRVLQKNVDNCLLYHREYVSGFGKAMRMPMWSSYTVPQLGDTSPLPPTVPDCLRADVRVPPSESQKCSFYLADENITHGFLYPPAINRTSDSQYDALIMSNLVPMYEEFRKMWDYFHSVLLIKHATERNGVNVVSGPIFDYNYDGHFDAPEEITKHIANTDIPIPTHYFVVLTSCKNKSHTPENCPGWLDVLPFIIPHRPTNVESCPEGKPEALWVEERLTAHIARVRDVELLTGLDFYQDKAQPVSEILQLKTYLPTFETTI

[4] = molecular target: T3, human CD3 on T cells (human, UniProt P07766 23-207); test: flow cytometry on human T cells, donor 110042496
T3 construct: on T cells it stands in the TCR-CD3 complex; also called human T cells; T cells isolated from healthy human donors

[5] = molecular target: T3, human CD3 on T cells; test: flow cytometry on human T cells, donor 110048457

T3 sequence (P07766 23-207 limits assumed): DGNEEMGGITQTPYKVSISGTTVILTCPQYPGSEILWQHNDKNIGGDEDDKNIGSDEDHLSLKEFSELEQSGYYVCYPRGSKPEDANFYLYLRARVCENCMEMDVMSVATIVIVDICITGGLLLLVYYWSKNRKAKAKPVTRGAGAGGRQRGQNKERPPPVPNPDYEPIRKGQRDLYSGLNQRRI

B1: NPP3B815 (bispecific antibody, human IgG1, kappa, L234A L235A)
heavy 1: EIVLTQSPATLSASPGERVTLSCSASSSVSYMNWYQQKPGCAPRRWIYDSSKLASGVPARFSGSGSGRDYTLTISSLEPEDFAVYYCQQWSRNPPTFGGGTKVEIKGGGSGGSGGCPPCGGSGGQVQLVQSGAEVKKPGSSVKVSCKASGYTFTRSTMHWVKQAPGQGLEWIGYINPSSAYTNYNQKFQGRVTLTADKSTSTAYMELSSLRSEDTAVYYCASPQVHYDYAGFPYWGCGTLVTVSSEPKSSDKTHTCPPCPAPEAAGGPSVFLFPPKPKDTLMISRTPEVTCVVVSVSHEDPEVKFNWYVDGVEVHNAKTKPREEQYNSTYRVVSVLTVLHQDWLNGKEYKCKVSNKALPAPIEKTISKAKGQPREPQVYTLPPSREEMTKNQVSLWCLVKGFYPSDIAVEWESNGQPENNYKTTPPVLDSDGSFFLYSKLTVDKSRWQQGNVFSCSVMHEALHNHYTQKSLSLSPGK
heavy 2: EVQLVESGGGRVKPGGSLRLSCAASGFTFSDYSMNWVRQAPGKGLEWVSSISSISSYVKYADSVKGRFTMSRDNAKNSLFLQMNSLRDEDMAVYYCARGHYFDYWGQGTLVTVSSASTKGPSVFPLAPSSKSTSGGTAALGCLVKDYFPEPVTVSWNSGALTSGVHTFPAVLQSSGLYSLSSVVTVPSSSLGTQTYICNVNHKPSNTKVDKKVEPKSCDKTHTCPPCPAPEAAGGPSVFLFPPKPKDTLMISRTPEVTCVVVSVSHEDPEVKFNWYVDGVEVHNAKTKPREEQYNSTYRVVSVLTVLHQDWLNGKEYKCKVSNKALPAPIEKTISKAKGQPREPQVYTLPPSREEMTKNQVSLSCAVKGFYPSDIAVEWESNGQPENNYKTTPPVLDSDGSFFLVSKLTVDKSRWQQGNVFSCSVMHEALHNRFTQKSLSLSPGK
light: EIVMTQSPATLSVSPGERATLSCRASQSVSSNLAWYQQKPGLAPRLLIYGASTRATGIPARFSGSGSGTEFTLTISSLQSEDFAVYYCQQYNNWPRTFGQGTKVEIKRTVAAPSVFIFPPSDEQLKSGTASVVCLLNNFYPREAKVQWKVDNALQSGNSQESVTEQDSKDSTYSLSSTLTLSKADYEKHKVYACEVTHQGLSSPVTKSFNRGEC
notes: HC2 carries the NPP3B56 Fab and the hole T366S, L368A, Y407V; Fc with L234A, L235A, D265S; The CPPC linker cysteines form disulfides with engineered Cys at L42 and H105 (Chothia); also called NPP3B56×CD3B2030-N106A; ENPP3×CD3 (NPP3B815)
- T-cell activation (Flow Cytometry) EC50; A704; E:T 3:1 [1]: 11 pM
- T-cell activation (Flow Cytometry) EC50; HepG2; E:T 3:1 [1]: 41 pM
- T-cell activation (Flow Cytometry) EC50; VMRCRCW; E:T 3:1 [1]: 18 pM
- Tumor cell killing (Incucyte) EC50; A704; E:T 3:1 [1]: 30 pM
- Tumor cell killing (Incucyte) EC50; HepG2; E:T 3:1 [1]: 530 pM
- Tumor cell killing (Incucyte) EC50; TUHR4TKB; E:T 3:1 [1]: 50 pM
- Tumor cell killing (Incucyte) EC50; TUHR10TKB; E:T 3:1 [1]: 20 pM
- Tumor cell killing (Incucyte) EC50; VMRCRCW; E:T 3:1 [1]: 130 pM
- killing EC50 @ 72 hrs; A704; T-cell donor 110040278; E:T 1:1 [2]: 75 pM
- killing EC50 @ 72 hrs; A704; T-cell donor 110040278; E:T 3:1 [2]: 48.4 pM
- killing EC50 @ 72 hrs; A704; T-cell donor 110042496; E:T 1:1 [2]: 132 pM
- killing EC50 @ 72 hrs; A704; T-cell donor 110042496; E:T 3:1 [2]: 69.6 pM
- killing EC50 @ 72 hrs; A704; T-cell donor 110042593; E:T 1:1 [2]: 114 pM
- killing EC50 @ 72 hrs; A704; T-cell donor 110042593; E:T 3:1 [2]: 33.6 pM
- killing EC50 @ 72 hrs; A704; T-cell donor 110044049; E:T 3:1 [2]: 52.4 pM
- killing EC50 @ 72 hrs; A704; T-cell donor 888668965; E:T 3:1 [2]: 45.4 pM
- killing EC50 @ 72 hrs; VMRCRCW; T-cell donor 110040278; E:T 1:1 [2]: 243 pM
- killing EC50 @ 72 hrs; VMRCRCW; T-cell donor 110040278; E:T 1:3 [2]: 456 pM
- killing EC50 @ 72 hrs; VMRCRCW; T-cell donor 110040278; E:T 3:1 [2]: 92.3 pM
- killing EC50 @ 72 hrs; VMRCRCW; T-cell donor 110042496; E:T 1:1 [2]: 465 pM
- killing EC50 @ 72 hrs; VMRCRCW; T-cell donor 110042496; E:T 3:1 [2]: 128 pM
- killing EC50 @ 72 hrs; VMRCRCW; T-cell donor 110042593; E:T 1:1 [2]: 225 pM
- killing EC50 @ 72 hrs; VMRCRCW; T-cell donor 110042593; E:T 3:1 [2]: 79.5 pM
- killing EC50 @ 72 hrs; VMRCRCW; T-cell donor 110044049; E:T 1:1 [2]: 151 pM
- killing EC50 @ 72 hrs; VMRCRCW; T-cell donor 110044049; E:T 1:3 [2]: 226 pM
- killing EC50 @ 72 hrs; VMRCRCW; T-cell donor 110044049; E:T 3:1 [2]: 115 pM
- killing EC50 @ 72 hrs; VMRCRCW; T-cell donor 110048457; E:T 1:1 [2]: 177 pM
- killing EC50 @ 72 hrs; VMRCRCW; T-cell donor 110048457; E:T 1:3 [2]: 276 pM
- killing EC50 @ 72 hrs; VMRCRCW; T-cell donor 110048457; E:T 3:1 [2]: 372 pM
- killing EC50 @ 72 hrs; VMRCRCW; T-cell donor 888668965; E:T 1:1 [2]: 273 pM
- killing EC50 @ 72 hrs; VMRCRCW; T-cell donor 888668965; E:T 1:3 [2]: 469 pM
- killing EC50 @ 72 hrs; VMRCRCW; T-cell donor 888668965; E:T 3:1 [2]: 156 pM
- killing EC50 @ 120 hrs; A704; T-cell donor 110040278; E:T 1:1 [2]: 41 pM
- killing EC50 @ 120 hrs; A704; T-cell donor 110040278; E:T 1:3 [2]: 149 pM
- killing EC50 @ 120 hrs; A704; T-cell donor 110042496; E:T 1:1 [2]: 73 pM
- killing EC50 @ 120 hrs; A704; T-cell donor 110042496; E:T 1:3 [2]: 191 pM
- killing EC50 @ 120 hrs; A704; T-cell donor 110042593; E:T 1:1 [2]: 48 pM
- killing EC50 @ 120 hrs; A704; T-cell donor 110042593; E:T 1:3 [2]: 106 pM
- killing EC50 @ 120 hrs; A704; T-cell donor 110044049; E:T 1:1 [2]: 125 pM
- killing EC50 @ 120 hrs; A704; T-cell donor 888668965; E:T 1:3 [2]: 163 pM
- killing EC50 @ 120 hrs; VMRCRCW; T-cell donor 110040278; E:T 1:1 [2]: 264 pM
- killing EC50 @ 120 hrs; VMRCRCW; T-cell donor 110040278; E:T 1:3 [2]: 332 pM
- killing EC50 @ 120 hrs; VMRCRCW; T-cell donor 110042496; E:T 1:1 [2]: 454 pM
- killing EC50 @ 120 hrs; VMRCRCW; T-cell donor 110042496; E:T 1:3 [2]: 500 pM
- killing EC50 @ 120 hrs; VMRCRCW; T-cell donor 110042593; E:T 1:1 [2]: 218 pM
- killing EC50 @ 120 hrs; VMRCRCW; T-cell donor 110042593; E:T 1:3 [2]: 485 pM
- killing EC50 @ 120 hrs; VMRCRCW; T-cell donor 110044049; E:T 1:1 [2]: 216 pM
- killing EC50 @ 120 hrs; VMRCRCW; T-cell donor 110044049; E:T 1:3 [2]: 337 pM
- killing EC50 @ 120 hrs; VMRCRCW; T-cell donor 110048457; E:T 1:1 [2]: 210 pM
- killing EC50 @ 120 hrs; VMRCRCW; T-cell donor 110048457; E:T 1:3 [2]: 267 pM
- killing EC50 @ 120 hrs; VMRCRCW; T-cell donor 888668965; E:T 1:1 [2]: 345 pM
- killing EC50 @ 120 hrs; VMRCRCW; T-cell donor 888668965; E:T 1:3 [2]: 379 pM
- Cytotox. EC50; HepG2-KO cyno ENPP3-OE; human T cells; E:T 3:1 [3]: 79 pM
- T-cell activation EC50; HepG2-KO cyno ENPP3-OE; human T cells; E:T 3:1 [3]: 23 pM
- EC50 [4]: 147000 pM
- EC50 [5]: 132000 pM
